“Also recorded” adds a separate entry of the source.
T1: Neogenin (Homo sapiens, UniProt Q92859)
T1 construct: His-tagged proteins (2.5 μg/mL of extracellular-Neogenin or sRGMa or sRGMc) were then coated onto each well; His tag (coated format); Alkaline phosphatase (AP) fusion (solution format, Ec-Neogenin-AP); made in house
T1 sequence (Q92859 34-1105 limits assumed): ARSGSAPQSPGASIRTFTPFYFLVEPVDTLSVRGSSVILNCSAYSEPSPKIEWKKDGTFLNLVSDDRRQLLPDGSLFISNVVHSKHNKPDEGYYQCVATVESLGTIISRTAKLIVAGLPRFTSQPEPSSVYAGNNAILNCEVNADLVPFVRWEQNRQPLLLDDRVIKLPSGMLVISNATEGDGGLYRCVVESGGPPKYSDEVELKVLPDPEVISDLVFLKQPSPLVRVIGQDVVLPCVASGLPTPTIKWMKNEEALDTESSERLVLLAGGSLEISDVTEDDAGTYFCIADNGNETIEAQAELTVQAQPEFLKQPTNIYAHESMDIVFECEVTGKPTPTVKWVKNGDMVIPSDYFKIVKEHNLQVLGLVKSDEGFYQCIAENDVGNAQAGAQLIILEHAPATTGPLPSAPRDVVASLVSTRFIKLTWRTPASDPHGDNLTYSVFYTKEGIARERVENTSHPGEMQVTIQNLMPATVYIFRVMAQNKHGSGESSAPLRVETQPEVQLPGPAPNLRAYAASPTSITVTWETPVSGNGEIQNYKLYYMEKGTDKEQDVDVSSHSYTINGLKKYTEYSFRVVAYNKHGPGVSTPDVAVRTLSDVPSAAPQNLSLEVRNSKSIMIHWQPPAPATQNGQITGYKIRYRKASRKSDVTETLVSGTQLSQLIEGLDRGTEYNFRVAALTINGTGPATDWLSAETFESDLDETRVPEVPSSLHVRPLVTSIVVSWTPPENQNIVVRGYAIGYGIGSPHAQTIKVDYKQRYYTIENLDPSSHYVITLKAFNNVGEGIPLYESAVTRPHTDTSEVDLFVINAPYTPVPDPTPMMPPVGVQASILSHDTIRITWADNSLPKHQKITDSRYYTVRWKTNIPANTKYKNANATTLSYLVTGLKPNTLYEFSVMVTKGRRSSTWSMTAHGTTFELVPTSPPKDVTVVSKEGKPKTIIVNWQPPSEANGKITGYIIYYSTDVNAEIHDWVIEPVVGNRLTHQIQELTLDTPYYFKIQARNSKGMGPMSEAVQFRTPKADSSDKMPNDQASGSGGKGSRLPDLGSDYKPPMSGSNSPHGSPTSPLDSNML


Assays:
b.end3 cells = experiment: In vitro BBB permeability, Dextran-FITC extravasation in Boyden chamber; format: cell-based, mouse; settings: b.end3 monolayer; for extravasation of Dextran-FITC in sRGMa-treated cells: 4 h pre-treatment (10 μg/mL sRGMc, 10 μg/mL C3 Transferase or 10 μM Y27632), then RGMa 18 h
Description: (A) Neogenin expression was analyzed on the membrane of b.end3 cells using immunohistochemical staining and by Western blot. (B) Crystal violet staining showing the b.end3 cell monolayer, (C) Representative diagram of the boyden chamber set up and (D) BBB permeability in b.end3 cells. Serum-starved cells were incubated for 4 h with RGMa (10 μg/ml), C3 Transferase (10 μg/mL) or Y27632 (10 μM) or sRGMc (10 μg/mL) and were then incubated with sRGMa (5 μg/mL) for 18 h followed by seeding of Dextran-FITC onto the upper chamber. Extravasation was measured over a period of 60 min as described in the Examples. n=3, performed in triplicates.
b.End3 endothelial cells were used to generate an in vitro model of the human EC barrier lining the choroid plexus. Briefly, b.end3 cells were plated on polyethylene-coated 0.4 μm pore size Boyden chambers (Corning) at a density of 2×10^5 cells per well in DMEM, and were allowed to grow for 72 h to reach confluency (verified using crystal violet staining). After 72 h, cells were serum starved for 6 h and pre-treated for 4 h with 10 μg/mL sRGMc, 10 μg/mL C3 Transferase or 10 μM Y27632. RGMa was then added to the wells for 18 h. The transwells were then transferred to a new plate containing 500 μl of HBSS and 200 μl 4-KDa Dextran-FITC (25 mg/ml; Sigma-Aldrich) was added to the upper chambers. Tracer diffusion across the EC monolayer was assessed in 30 min intervals for a period of 1.5 h. FITC signal, which represented the amount of extravasation through the monolayer was analyzed with using a microplate reader.

Neogenin = target: T1, Neogenin; experiment: In vitro competition binding assay (AP-tagged proteins); settings: pre-incubation of sRGMa with Ec-Neogenin-AP; compared to BSA control
Description: (C) Binding of Neogenin to bovine serum albumin (Neogenin+BSA), to RGMa (Neogenin+RGMa), and to RGMc (Neogenin+RGMc) in RGMa-AP and in RGMc-AP. Constructs overexpressing His-tagged sRGMa, sRGMc and the extracellular domains of Neogenin (Ec-Neogenin) were coated onto Poly-L-Lysine coated wells. Alkaline Phosphatase (AP)-tagged proteins (EC-Neogenin or RGMa or RGMc) were then added to each well and incubated at 37° C. for 1 h. Each well was washed and equilibrated with AP developing buffer (100 mM NaHCO3, 1 mM MgCl2). The reaction was initiated using AP developing buffer supplemented with p-nitrophenyl phosphate and then stopped following color development by adding 50 μl (0.1M) NaOH. The absorbance of each reaction was measured using a microplate autoreader at 405 nm as described in the Examples. (D) Binding of Neogenin-AP to bovine serum albumin (Neogenin-AP+BSA), to RGMa (Neogenin-AP+RGMa), and to RGMc (Neogenin-AP+RGMc). Competition assay was performed as described in the Examples and above but in which the constructs were reversed.
Using a 96-well microtiter plate (Corning), wells coated with 100 μl (10 μg/mL) of Poly-L-Lysine (Sigma-Aldrich) incubated at 4° C. overnight were then washed 3× with 100 μl of PBST (+0.02% Tween-20). […] The absorbance of each reaction was measured using a microplate autoreader (BioTek EL311 AutoReader) at 405 nm.

[1] = system: blood brain barrier of mice; experiment: BBB permeability, Texas red dye leakage by widefield imaging; format: in vivo, mouse; settings: mice injected with RGMa alone; vs vehicle
Description: Mice were treated with RGMa (70 ug), RGMa (70 ug)+RGMc (70 ug), or Vehicle (1% BSA) 18 h prior to widefield imaging (100-300 ms exposure) prior to and following intravenous injection of Texas Red dye (0.5 mg) over time. […] (B) Quantification of the leakage of Texas Red dye (measured as the number of leakage sites/mm^2).
BBB integrity was assessed in mice treated with PBS (Vehicle), RGMa, RGMc, RGMa+ immunoglobulin domain of Neogenin (4Ig). Widefield imaging was then carried out under a Olympus microscope (BX6 1WI) prior to and following the injection of Texas red dye (100 uL, I.V., 5 mg/ml) using 100-300 ms exposure. Recording was performed from 0 min to 35 min following injection. Texas dye leakage was also assessed in RGMc knockout (KO) and wild type (WT) mice. The leakage of Texas-red dye was quantified by a blind experimenter measuring the number of leakage sites/mm^2. (A) Representative images of Texas red dye: PBS (Vehicle), RGMa, RGMa+RGMc and RGMa+4Ig (immunoglobulin domain of Neogenin). Quantification of the leakage of Texas Red dye in animals treated with (B) PBS (Vehicle), RGMa or RGMa+RGMc or in RGMc KO and WT mice or (C) PBS (Vehicle), RGMa, RGMa+RGMc or RGMa+4Ig.
Mice injected with BSA, RGMc, RGMa, or RGMa+RGMc. […] Leakage of Texas red dye was quantified by a blind experimenter measuring the number of leakage sites/mm^2. […]

[2] = system: Claudin 5 in b.End3 cells; experiment: Claudin 5 expression in endothelial cells by Western blot; format: cell-based, mouse; settings: incubation with RGM proteins
Description: Cells were pretreated for 6 h with PBS, RGMc, RGMa or RGMc+RGMa. Western blotting was performed on the lysates with Claudin-5 and GAPDH antibodies.
Next, the BBB permeability was assessed by injecting mice with BSA, RGMa, RGMa plus RGMc and subsequently followed by assessment of Texas dye leakage using widefield imaging as an indication of BBB integrity. […] Thus, Claudin 5 expression following RGMa/c treatments of murine-derived brain endothelial cells (b.End3) was studied. B.En3 cells were grown up to 80% confluency and were treated with overnight incubation with RGM proteins.

Molecule | extravasation of Dextran-FITC in sRGMa-treated cells (b.end3 cells) | reduction of binding intensity of RGMc to Neogenin (Neogenin) | BBB integrity, leakage of Texas Red dye [1] | extravasation of Dextran-FITC (b.end3 cells; sRGMa alone, vs vehicle-treated wells) | reduction in Claudin 5 levels [2]
C[C@@H](N)[C@H]1CC[C@H](C(=O)Nc2ccncc2)CC1 [Y27632, reference compound] | reduced |  |  |  | 
C3 Transferase [reference compound] | reduced |  |  |  | 
sRGMa: mouse RGMa cloned with His tag replacing the GPI-anchor, secreted soluble protein (protein, left off: large carriers, mouse RGMa cloned with His tag replacing the GPI-anchor, secreted soluble protein) PHLRTFTDHFQTCKVQGAWPLIDNNYLNVQVTNTPVLPGSAATATSKLTIIFKNFQECVDQKVYQAEMDELPSAFADGSKNGGDKHGANSLKITEKVSGQHVEIQAKYIGTTIVVRQVGRYLTFAVRMPEEVVNAVEDRDSQGLYLCLRGCPLNQQIDFQAFRANAESPRRPAAASPSPVVPETFPYETAVAKCKEKLPVEDLYYQACVFDLLTTGDVNFTLAAYYALEDGKMLHSNKDKLHLFERTRELPGAVAAAA |  | 3 fold | significantly disrupted BBB integrity; also recorded: significantly elevated leakage | increased | 2 fold
